From US20240117049A1 (Hoffmann-La Roche, published 2024)
Each block holds one binder with its values, some of them ahead of it.

Columns and labels:
[1] = target: biotinylated recombinant cynomolgus FAP (cynomolgus, UniProt Q12884 27-760 (human entry), limits assumed, biotinylated); assay: SPR (Biacore), biotinylated recombinant FAP
[2] = target: T1, biotinylated recombinant human FAP (human, UniProt Q12884 27-760, biotinylated); assay: SPR (Biacore), biotinylated recombinant FAP
T1 construct: the Biacore paragraphs only say biotinylated (recombinant) human FAP; also called biotinylated human FAP; recombinant huFAP

[3] = target: T2, human Fibroblast Activation Protein (FAP) expressed on cells (human, UniProt Q12884 1-760); assay: flow cytometry, FAP-transfected HEK cells
T2 construct: cell surface FAP on transfected HEK cells or NIH/3T3-huFAP clone 19 fibroblasts; also called huFAP; human FAP-transfected HEK cells

[4] = target: T3, human DPP-IV expressed on transfected HEK cells (human, UniProt P27487 1-766); assay: flow cytometry, human DPPIV-transfected HEK cells
T3 construct: whole, on cells; also called dipeptidyl peptidase IV
T3 sequence (P27487 whole entry): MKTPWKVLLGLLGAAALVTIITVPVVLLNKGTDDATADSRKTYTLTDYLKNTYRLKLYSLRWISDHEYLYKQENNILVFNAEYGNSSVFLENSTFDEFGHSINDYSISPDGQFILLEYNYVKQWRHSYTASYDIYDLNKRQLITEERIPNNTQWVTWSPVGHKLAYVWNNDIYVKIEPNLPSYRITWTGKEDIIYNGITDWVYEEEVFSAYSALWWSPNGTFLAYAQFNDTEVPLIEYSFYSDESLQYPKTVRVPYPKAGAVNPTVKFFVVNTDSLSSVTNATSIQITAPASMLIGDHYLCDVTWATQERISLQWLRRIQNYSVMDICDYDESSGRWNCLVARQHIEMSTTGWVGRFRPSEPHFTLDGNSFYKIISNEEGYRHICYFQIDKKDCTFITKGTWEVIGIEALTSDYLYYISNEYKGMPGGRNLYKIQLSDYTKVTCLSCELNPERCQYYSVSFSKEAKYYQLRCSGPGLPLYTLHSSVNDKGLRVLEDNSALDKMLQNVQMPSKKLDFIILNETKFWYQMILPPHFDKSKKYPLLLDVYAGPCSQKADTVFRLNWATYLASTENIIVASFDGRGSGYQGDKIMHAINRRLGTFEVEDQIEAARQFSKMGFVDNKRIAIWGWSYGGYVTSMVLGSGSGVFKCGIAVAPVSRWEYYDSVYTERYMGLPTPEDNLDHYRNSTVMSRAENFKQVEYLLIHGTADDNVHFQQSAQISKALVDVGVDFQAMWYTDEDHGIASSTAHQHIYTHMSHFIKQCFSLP
Description: Binding to human FAP and human DPP-IV was determined by flow cytometry using human FAP or human DPPIV-transfected HEK cells. […] Unlabeled primary antibodies were added to the cells (final concentration 10 μg/ml) and incubated for 30 min at 4° C. After washing, cells were incubated with a goat anti-mouse IgG-PE F(ab′)2 (Serotec) for 30 min at 4° C. in the dark. Afterwards, cells were washed, fixed and measured using a BD FACS Canto™ II.

[5] = target: T2, human Fibroblast Activation Protein …; assay: flow cytometry, human FAP-transfected HEK cells
Description: The binding of anti-FAP antibodies with a human IgG1 P329G LALA Fc to human FAP was determined by flow cytometry using human FAP-transfected HEK cells. […] Unlabeled primary antibodies were added to the cells (final concentrations 10 μg/ml to 0.64 ng/ml; 1:5 dilutions) and incubated for 30 min at 4° C. After washing, cells were incubated with a PE-conjugated AffiPure F(ab)₂ Fragment Goat anti-human IgG, Fcγ specific (Jackson Immunoresearch) for 30 min at 4° C. in the dark. Afterwards, cells were washed, fixed and measured using a BD FACS LSR Fortessa™.

[6] = target: T4, cynomolgus FAP expressed on cells (cynomolgus); assay: flow cytometry, FAP-transfected HEK cells
T4 construct: whole, on cells

Kd [1]: 0.64 nM
Kd [2]: 0.62 nM
EC50 [3]: 2.8 µg/mL
B1: anti-FAP clone 212, C-terminal Fab fusion construct (Fc fusion)
chain 1: EVLLQQSGPELVKPGASVKIACKASGYTLTDYNMDWVRQSHGKSLEWIGDIYPNTGGTIYNQKFKGKATLTIDKSSSTAYMDLRSLTSEDTAVYYCTRFRGIHYAMDYWGQGTSVTVSS
chain 2: not shown

binding result [4]: no binding (tested: 10 µg/ml)
B2: anti-human FAP clone 212, hybridoma-derived murine antibody (antibody, V domains shown)
VH: B1 chain 1
VL: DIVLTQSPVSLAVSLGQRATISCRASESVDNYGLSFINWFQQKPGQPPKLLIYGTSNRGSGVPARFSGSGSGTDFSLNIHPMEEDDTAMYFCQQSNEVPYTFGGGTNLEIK
notes: mu IgG1

Kd [1]: 0.14 nM
EC50 [5]: 0.118 µg/mL
EC50 [3]: 0.12 µg/mL
EC50 [6]: 0.3 µg/mL
B3: P1AD9438, anti-FAP clone 212 as huIgG1 P329G LALA antibody (antibody, V domains shown)
VH: B1 chain 1
VL: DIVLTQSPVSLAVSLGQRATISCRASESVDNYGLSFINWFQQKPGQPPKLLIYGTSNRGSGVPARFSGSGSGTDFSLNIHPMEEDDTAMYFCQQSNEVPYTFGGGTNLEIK
notes: human IgG1 with P329G, L234A, L235A; also called 212 IgG

EC50 [5]: 0.089 µg/mL
B4: anti-FAP antibody 4B9 (antibody, V domains shown)
VH: EVQLLESGGGLVQPGGSLRLSCAASGFTFSSYAMSWVRQAPGKGLEWVSAIIGSGASTYYADSVKGRFTISRDNSKNTLYLQMNSLRAEDTAVYYCAKGWFGGFNYWGQGTLVTVSS
VL: EIVLTQSPGTLSLSPGERATLSCRASQSVTSSYLAWYQQKPGQAPRLLINVGSRRATGIPDRFSGSGSGTDFTLTISRLEPEDFAVYYCQQGIMLPPTFGQGTKVEIK
notes: made as in WO 2012/020006; also called FAP clone 4B9; AlexaFluor647-labeled anti FAP antibody 4B9
